Results taken from article PMC9352680, “A comprehensive thermodynamic model for RNA binding by the Saccharomyces cerevisiae Pumilio protein PUF4”.

T1: PUF4 RNA-binding domain (Saccharomyces cerevisiae, UniProt P25339 537-888)
T1 sequence: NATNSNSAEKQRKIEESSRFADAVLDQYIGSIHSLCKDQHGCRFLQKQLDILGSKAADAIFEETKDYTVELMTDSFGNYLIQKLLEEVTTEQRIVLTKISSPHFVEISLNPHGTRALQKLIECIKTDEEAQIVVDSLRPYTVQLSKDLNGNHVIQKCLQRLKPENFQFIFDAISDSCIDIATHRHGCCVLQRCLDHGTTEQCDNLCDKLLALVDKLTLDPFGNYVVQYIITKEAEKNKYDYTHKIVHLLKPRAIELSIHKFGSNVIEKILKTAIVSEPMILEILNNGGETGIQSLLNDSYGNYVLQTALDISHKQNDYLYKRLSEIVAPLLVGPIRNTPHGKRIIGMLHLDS

B1: Id_ii_S2_P3E.3_K3.2_C3.2_[C-2T]_[T-1A]_H3.2_A3.1_F3.1_T3.2_[A10C] (ssRNA)
RNA: UUUGAUUAAUAUGAUAUCGUUCUUUCUUAUAUAUAUAUCUUCUUUCUCGAUAUCAUAUUAAUCUUU
B2: Id_ii_S2_P3E.3_K3.2_C3.2_[T-1G]_H3.2_A3.1_F3.1_T3.2 (ssRNA)
RNA: UUUGAUUAAUAUGAUAUCGUUCUUUCUCGUAUAUAUAUAUUCUUUCUCGAUAUCAUAUUAAUCUUU
B3: Id_ii_S2_P3E.3_K3.2_C3.2_[C-2A]_[T-1A]_H3.2_A3.1_F3.1_T3.2_[T9G]_[A10C] (ssRNA)
RNA: UUUGAUUAAUAUGAUAUCGUUCUUUCUAAUAUAUAUAGCUUCUUUCUCGAUAUCAUAUUAAUCUUU
B4: Id_ii_S2_P3E.3_K3.2_C3.2_[T-1G]_H3.2_A3.1_F3.1_T3.2_[T9A] (ssRNA)
RNA: UUUGAUUAAUAUGAUAUCGUUCUUUCUCGUAUAUAUAAAUUCUUUCUCGAUAUCAUAUUAAUCUUU
B5: Id_ii_S2_P3E.3_K3.2_C3.2_[C-2A]_H3.2_A3.1_F3.1_T3.2_[T9C]_[A10C] (ssRNA)
RNA: UUUGAUUAAUAUGAUAUCGUUCUUUCUAUUAUAUAUACCUUCUUUCUCGAUAUCAUAUUAAUCUUU
B6: Id_ii_S2_P3E.3_K3.2_C3.2_[T-1C]_H3.2_A3.1_F3.1_T3.2_[T9A]_[A10C] (ssRNA)
RNA: UUUGAUUAAUAUGAUAUCGUUCUUUCUCCUAUAUAUAACUUCUUUCUCGAUAUCAUAUUAAUCUUU
B7: Id_ii_S2_P3E.3_K3.2_C3.2_[C-2A]_H3.2_A3.1_F3.1_T3.2_[T9C]_[A10G] (ssRNA)
RNA: UUUGAUUAAUAUGAUAUCGUUCUUUCUAUUAUAUAUACGUUCUUUCUCGAUAUCAUAUUAAUCUUU
B8: Id_ii_S2_P3E.3_K3.2_C3.2_[C-2A]_[T-1A]_H3.2_A3.1_F3.1_T3.2_[T9A]_[A10G] (ssRNA)
RNA: UUUGAUUAAUAUGAUAUCGUUCUUUCUAAUAUAUAUAAGUUCUUUCUCGAUAUCAUAUUAAUCUUU
B9: Id_ii_S2_P3E.3_K3.2_C3.2_[T-1C]_H3.2_A3.1_F3.1_T3.2_[T9A]_[A10T] (ssRNA)
RNA: UUUGAUUAAUAUGAUAUCGUUCUUUCUCCUAUAUAUAAUUUCUUUCUCGAUAUCAUAUUAAUCUUU
B10: Id_ii_S2_P3E.3_K3.2_C3.2_[C-2A]_[T-1C]_H3.2_A3.1_F3.1_T3.2_[T9C]_[A10T] (ssRNA)
RNA: UUUGAUUAAUAUGAUAUCGUUCUUUCUACUAUAUAUACUUUCUUUCUCGAUAUCAUAUUAAUCUUU
B11: Id_ii_S2_P3E.3_K3.2_C3.2_[C-2T]_H3.2_A3.1_F3.1_T3.2_[A10C] (ssRNA)
RNA: UUUGAUUAAUAUGAUAUCGUUCUUUCUUUUAUAUAUAUCUUCUUUCUCGAUAUCAUAUUAAUCUUU
B12: Id_ii_S2_P3E.3_K3.2_C3.2_[C-2A]_[T-1C]_H3.2_A3.1_F3.1_T3.2_[T9A] (ssRNA)
RNA: UUUGAUUAAUAUGAUAUCGUUCUUUCUACUAUAUAUAAAUUCUUUCUCGAUAUCAUAUUAAUCUUU
B13: Id_ii_S2_P3E.3_K3.2_C3.2_[C-2A]_[T-1A]_H3.2_A3.1_F3.1_T3.2_[A10T] (ssRNA)
RNA: UUUGAUUAAUAUGAUAUCGUUCUUUCUAAUAUAUAUAUUUUCUUUCUCGAUAUCAUAUUAAUCUUU
B14: Id_ii_S2_P3E.3_K3.2_C3.2_[T-1G]_H3.2_A3.1_F3.1_T3.2_[T9C]_[A10C] (ssRNA)
RNA: UUUGAUUAAUAUGAUAUCGUUCUUUCUCGUAUAUAUACCUUCUUUCUCGAUAUCAUAUUAAUCUUU
B15: Id_ii_S2_P3E.3_K3.2_C3.2_[C-2A]_[T-1G]_H3.2_A3.1_F3.1_T3.2_[T9A] (ssRNA)
RNA: UUUGAUUAAUAUGAUAUCGUUCUUUCUAGUAUAUAUAAAUUCUUUCUCGAUAUCAUAUUAAUCUUU
B16: Id_ii_S2_P3E.3_K3.2_C3.2_[C-2A]_[T-1G]_H3.2_A3.1_F3.1_T3.2_[A10T] (ssRNA)
RNA: UUUGAUUAAUAUGAUAUCGUUCUUUCUAGUAUAUAUAUUUUCUUUCUCGAUAUCAUAUUAAUCUUU
B17: Id_ii_S2_P3E.3_K3.2_C3.2_[C-2T]_H3.2_A3.1_F3.1_T3.2_[T9C]_[A10C] (ssRNA)
RNA: UUUGAUUAAUAUGAUAUCGUUCUUUCUUUUAUAUAUACCUUCUUUCUCGAUAUCAUAUUAAUCUUU
B18: Id_ii_S2_P3E.3_K3.2_C3.2_[C-2T]_H3.2_A3.1_F3.1_T3.2_[T9G]_[A10C] (ssRNA)
RNA: UUUGAUUAAUAUGAUAUCGUUCUUUCUUUUAUAUAUAGCUUCUUUCUCGAUAUCAUAUUAAUCUUU
B19: Id_ii_S2_P3E.3_K3.2_C3.2_[C-2A]_[T-1G]_H3.2_A3.1_F3.1_T3.2_[T9A]_[A10T] (ssRNA)
RNA: UUUGAUUAAUAUGAUAUCGUUCUUUCUAGUAUAUAUAAUUUCUUUCUCGAUAUCAUAUUAAUCUUU

What follows are binders tested against T1, PUF4 RNA-binding domain (assay: Mg; RNA-MaP; 20 mM Na-HEPES pH 7.4, 30 mM KOAc, 0.75 mM MgCl2, 0.1% Tween-20, 5% glycerol, 0.1 mg/mL BSA, 2 mM DTT; 25 C; 0.0125-409.6 nM protein). Settings: tags: N-His6-TEV cleaved; C-SNAP kept, Cy3B-labelled; label: tethered on chip by stalled RNA polymerase.

In order of falling Kd:
1. B8  1010 nM
2. B14  863 nM
3. B15  809 nM
4. B13  720 nM
5. B7  713 nM
6. B3  701 nM
7. UCUCUUCGUAUUAUAAUCUCUU (ssRNA) [Ib_S1_P5E.1_K5.1_C5.1_H5.1_[T1C]_A5.1_F5.1_[T9A]_T5.1]  691 nM
8. UCUCUUUAUAUUAUCAUCUCUU (ssRNA) [Ib_S1_P5E.1_K5.1_C5.1_H5.1_[G2A]_A5.1_F5.1_[T9C]_T5.1]  641 nM
9. UCUCUUAGUAUUAUAAUCUCUU (ssRNA) [Ib_S1_P5E.1_K5.1_C5.1_H5.1_[T1A]_A5.1_F5.1_[T9A]_T5.1]  614 nM
10. B16  407 nM
11. B5  322 nM
12. B12  290 nM
13. B18  277 nM
14. B19  199 nM
15. B17  191 nM
16. B4  190 nM
17. B2  160 nM
18. B11  130 nM
19. B6  122 nM
20. B10  103 nM
21. B1  93.1 nM
22. B9  93.1 nM
23. UCUCUUUGUUUUAAUAUCUCUU (ssRNA) [Ib_S1_P5E.1_K5.1_C5.1_H5.1_[A4T]_A5.1_F5.1_[T8A]_T5.1]  73.4 nM
